Data set [1] relates to Csy complex (Csy1-4 + crRNA, Type I-F) (Pseudomonas aeruginosa PA14). In words: EMSA. Particulars: EMSA: 20 mM HEPES pH 7.5, 100 mM KCl, 5% glycerol, 1 mM TCEP, 2 mM EDTA, 37 C, 15 min (competition 5 min), SPR: 20 mM HEPES pH 7.5, 100 mM KCl, 0.02%. A general note: A gel shift assay detects complexes by their altered migration in electrophoresis.
Data set [2] has the same test system. Nature of the data set: SPR. The following applies: ka 1.9e7 M-1 s-1, half-life 6.3 s, same as non-target, EMSA Kd >2 orders higher, EMSA: 20 mM HEPES pH 7.5, 100 mM KCl, 5% glycerol, 1 mM TCEP, 2 mM EDTA, 37 C, 15 min (competition 5 min), SPR: 20 mM HEPES pH 7.5, 100 mM KCl, 0.02%.

These results are taken from PMC4344526.

The Kd is the concentration at which binding is half-saturated.

As for dsDNA target, protospacer + G-C/G-C PAM, the Kd in data set [1] was determined as 1 nM.

On to ssDNA target, protospacer + GG PAM, for which, in data set [1], the Kd was determined as 0.5 nM.

Take “dsDNA target, T-A/T-A PAM, duplexed (EMSA)”: the binding signal (fold weaker vs N1) in data set [1] was 100.

As for dsDNA target, 7-deazaguanine PAM, in data set [1] (both PAM guanines replaced by 7-deazaguanine), the binding signal (fold increase in Kd vs N1) was determined as 120. Take dsDNA target, inosine PAM: in data set [1] (both PAM guanines replaced by inosine), the binding signal (fold increase in Kd vs N1) was more than 1000. Consider “dsDNA target, protospacer + T-A/T-A PAM (SPR)”, for which the Kd in data set [2] amounted to 6 nM.
